In the RNAGym collection of RNA variant scans (doi:10.1073/pnas.2313332121):
This sample holds only a part of the variants without activity.

B1: TPR 5TU (parent)
chain: GGAUCUUCUCGAUCUAACAAAAAAGACAAAUCUGCCACAAAGCUUGAGAGCAUCUUCGGAUGCAGAGGCGGCAGCCUUCGGUGGCGCGAUAGCGCCAACGUUCUCAACUAUGACACGCAAAACGCGUGCUCCGUUGAAUGGAGUUUAUCAUG

Variants of: B1
Experiment: polymerase ribozyme fitness, log enrichment relative to wild type (log ratio); higher = more active; in vitro selection for triplet polymerase activity
Method in brief: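 Both subunits of a heterodimeric triplet polymerase ribozyme were given their own mutant library, built by PCR and transcribed. Each library was annealed with a biotinylated primer, the partner subunit and triplets, incubated frozen at −7 °C, and its extended constructs gel-excised, captured on streptavidin beads and amplified by RT-PCR, all in one round done in triplicate. Fitness is the logarithm of genotype enrichment relative to wild-type enrichment, with replicates averaged by inverse-variance weighting. That logarithm is base 2, and Illumina-sequenced genotypes needed ≥10 input reads and ≥1 read per output.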

| Variant | polymerase ribozyme fitness (log ratio) |
| --- | --- |
| A16U U31G G50A G58A C85U U104G A106U U134A | ≤ -4.2 |
| A17C A30U A60C G62A A66G G84A C118A | ≤ -4.2 |
| A17C A19C U55A G94A | 1.05 |
| A16G A73G | -0.494 |
| A16G U53A | -1.79 |
| A16U C36U C51A G92A | ≤ -4.2 |
| A16U A22U A52C C87A A107C C125A U134C | ≤ -4.2 |
| A16G C35A C87G U109C G126C C149G | ≤ -4.2 |
| A17C C18A U33A G80C C87A C108A G152C | ≤ -4.2 |
| A16C A30U G68C C79G | ≤ -4.2 |
| A16G C108U G126A | ≤ -4.2 |
| A16U A22U A23G A60U C95U C108U A119G C123U | ≤ -4.2 |
| A16C C96G G140U | ≤ -4.2 |
| A16G A20C A22C C32G A66G C118G G126A C132A | ≤ -4.2 |
| A16G G58A C129G | -4.19 |
| A16U C18G A21U A98G C105U | ≤ -4.2 |
| A16U A52C | -2.96 |
| A16G U53A U56G A89C C96U U111C | ≤ -4.2 |
| A16G A30U G81C C95U A110G | ≤ -4.2 |
| A16C C32A A41U A60G G74U C93G A147U | ≤ -4.2 |
| A17C C85G G94A C123A G124U | -1.12 |
| A16G G48U U109G | -3.48 |
| A16U A20C U31G G42C C87G G88C | ≤ -4.2 |
| A16U A28C U55A C69A G71A G88C U102G C123U U130G | ≤ -4.2 |

| Variant | polymerase ribozyme fitness (log ratio) |
| --- | --- |
| A16C A120C G140A | -3.75 |
| A16G A21C G80A C103A U104G | ≤ -4.2 |
| A16U U56A A60U G141U | -2.12 |
| A16G C96A | -0.881 |
| A17C A22C A73C A91C C95G U101A G143A | ≤ -4.2 |
| A16G C95U C96A G100U U101A C108A U139C U144A | ≤ -4.2 |
| A17C C85A C99A | -2.66 |
| A16U C93A | -3.85 |
| A16U G46C U61A G67C G83C A142C | ≤ -4.2 |
| A16C C27G A49G G50A A60C C79A A91U C105G | ≤ -4.2 |
| A16U G83C C129G A137C U145C | ≤ -4.2 |
| A16G U56C C76A | -0.363 |
| A16U C75U G86A | -2.59 |
| A17C C27U C85U G86U C123U G141A | -3.85 |
| A16G A91G C118U A150U | -3.08 |
| A16U C54G C87A A98U | ≤ -4.2 |
| A16G A26U C51U A52C C87U | ≤ -4.2 |
| A16U C87U A89U G140U G143A | ≤ -4.2 |
| A16G C85U | -0.908 |
| A16G C85G | -2.6 |
| A16U C51A G74U C87A A107U | ≤ -4.2 |
| A16U C18G G94A | -2.97 |
| A16U A30U C87A | ≤ -4.2 |
| A16G A89U A115G A119G U134G U144A | ≤ -4.2 |

| Variant | polymerase ribozyme fitness (log ratio) |
| --- | --- |
| A16U G84U | -3.5 |
| A16U C51U G86U U104A C108A G124U | ≤ -4.2 |
| A16U U55A | -2.64 |
| A16U C54A A60C A73C G86A A89C A119G G126U | ≤ -4.2 |
| A17C C54U A73U G94U A106G | -2.62 |
| A16U A24C C27U C85U G126U | ≤ -4.2 |
| A16U C32A C35G C96A G124C U144C | ≤ -4.2 |
| A17C C85A | -2.22 |
| A16C U135A | -2.12 |
| A16G G48C A52G | -1.13 |
| A16G C93A | -2.12 |
| A16U A19U G80A U144G | -2.53 |
| A17C A64C G83U | ≤ -4.2 |
| A16G A52C C87A U102A C118G C132U | ≤ -4.2 |
| A16U C38G U61A C75G G80A G100A G136U | ≤ -4.2 |
| A16U A17C A24G A49G C76A C87A C99G | ≤ -4.2 |
| A16G A24U A73U | -2.25 |
| A16G U44A A73G C87U C93U | ≤ -4.2 |
| A16U | -1.62 |
| A16G | -0.642 |
| A17C A120G | 0.31 |
| A16U A39U A49U G50C G84U A119G A121G G140U | ≤ -4.2 |
| A16C C38A C76U | -2.07 |
| A16G C38A C76A C85U U134A | -4 |

| Variant | polymerase ribozyme fitness (log ratio) |
| --- | --- |
| A16C G50A C96A | -3.37 |
| A16C A37C A39C C85U | ≤ -4.2 |
| A16U A19C C85U | -2.05 |
| A16U A19U A20U A40U G86U C96U | ≤ -4.2 |
| A16U A20C C27U A37U G59C A64C C85U A113G A120U C132U | ≤ -4.2 |
| A16G A49G A73C A91G U144C | ≤ -4.2 |
| A16C G58C G83U A119C | -1.98 |
| A16U A47C G59A C87G U90A U101A A113G | ≤ -4.2 |
| A17C C35U G92A A122G | -2.61 |
| A17C C51A C93U A115U | -2.93 |
| A16C G86C | -3.43 |
| A16G C99U | -1.33 |
| A16C C87U C118U | -2.27 |
| A16G A37C U55G U56A G59A G83A C87U | -3.9 |
| A16G G46U G84A C105U G133C A138G A142G | ≤ -4.2 |
| A16C G48A C51U C96G | -3.07 |
| A16G A17U A26U A41U C96A U102A G143C | ≤ -4.2 |
| A16U G42A G59A G71A A89G | ≤ -4.2 |
| A16G G25A U45C U53A A91C C103G C108U C125U | ≤ -4.2 |
| A16U C57A G58U C75G C87A C99U A142C U144C | ≤ -4.2 |
| A16C C32A A49U U102G C129G | ≤ -4.2 |
| A16U A37C C63U C95U C123A G141U | -4.01 |
| A16U C93U A106C | -3.19 |
| A16C A40C G80A G92U A113G U135C G140A | ≤ -4.2 |

| Variant | polymerase ribozyme fitness (log ratio) |
| --- | --- |
| A16C A47C U55A | -2.23 |
| A16U C18A A22U G48U U56G A66G G84U U144A | ≤ -4.2 |
| A16G A47G G50C G59A G83U C114A | ≤ -4.2 |
| A16G A39G G68A C95A C103G C108U U111G A115G C123U | ≤ -4.2 |
| A16U C85U | -2.1 |
| A16U C93U C116U G117U A121G | -2.05 |
| A16G G92U C93U C118U | -2.94 |
| A17C C38A G94A | 0.661 |
| A16G C38A A147C | -2.97 |
| A16U U53A C57A C95A | -2.57 |
| A16G C85G G86U A89C A107G | ≤ -4.2 |
| A16U C57G U77A G88U | ≤ -4.2 |
| A16G C57A C85G A121U | -2.53 |
| A16C C93A | -3.94 |
| A16U A20G A37C C95G U102G A113U | ≤ -4.2 |
| A16G A37U G92U | -2.9 |
| A16G A40U G59C U104A | -1.85 |
| A16U U31C C35U A37C C76G C105G G117A | ≤ -4.2 |
| A16U A41U | -2.64 |
| A16U A41C G42A G65A A66G C87A U90G | ≤ -4.2 |
| A16C C108U A147U | -3.42 |
| A16U U61G U77C C85A G92C U144A | ≤ -4.2 |
| A17C C85G C149G | ≤ -4.2 |
| A16G U33G C93A C95A C103U A121G | ≤ -4.2 |

| Variant | polymerase ribozyme fitness (log ratio) |
| --- | --- |
| A17C C54A C87A C114U | ≤ -4.2 |
| A16U G48U G86C C87A A97U C123U U148G | ≤ -4.2 |
| A16U G92U C99G | -3.45 |
| A16C C38A | -1.34 |
| A16U A20U C54U G58C G59A C93U C114U U148A | ≤ -4.2 |
| A16U A26G U53C G84C C87A G128C G141A | ≤ -4.2 |
| A16U C36A G92U A150U | ≤ -4.2 |
| A16U C93G C105G | ≤ -4.2 |
| A16C C85A | -2.36 |
| A16U C32G A66U C72U C85G | ≤ -4.2 |
| A16C A121G | -1.15 |
| A16C A60U A66C C76U U78C C93A | ≤ -4.2 |
| A16G G46A A73G G88U G94A C114G | ≤ -4.2 |
| A16U G84U C129A | ≤ -4.2 |
| A16C A52U | -2.03 |
| A16C C54U C85A | -3.31 |
| A16U C96A | -2.78 |
| A16U C116A G136A G140C | ≤ -4.2 |
| A17C C85U A120G G124U G143C | -3.22 |
| A16U A26C A29U G68C G83A | ≤ -4.2 |
| A16C C35G A66C G71A U82C C87A | ≤ -4.2 |
| A16U C76G G80C | ≤ -4.2 |
| A16U G25U C27U A28U C43U G94C C99G C125A U148C U151G | ≤ -4.2 |
| A17C A39G U44G C63A A73G A113G A121U G141A | ≤ -4.2 |

| Variant | polymerase ribozyme fitness (log ratio) |
| --- | --- |
| A16G A17C A41U U55A C76U C85A | ≤ -4.2 |
| A16G U31G G46A U55A C95G | ≤ -4.2 |
| A16C A30U G58U A66U A73G | ≤ -4.2 |
| A17C A28U G88C U144C | -4.01 |
| A16U A22U A37G C72U | -3.87 |
| A16G U33G A39C G58U U151G | ≤ -4.2 |
| A16C G58U U101G C105A U144G | ≤ -4.2 |
| A16U A37C A52G G84A G140C | ≤ -4.2 |
| A16G G48A C57G G58A A60C G88A C114A G141A | ≤ -4.2 |
| A17C A24U G48C A89G C93G G128U | ≤ -4.2 |
| A17C A73G C76G U82C C85G | ≤ -4.2 |
| A16G A26U G65U C103G A107G C114G | ≤ -4.2 |
| A16U G83U C85U C103G U135G | ≤ -4.2 |
| A16G A21U A97G | -1.74 |
| A16C C43A A52C G70A C131U | ≤ -4.2 |
| A16U A73G A107G A119G | ≤ -4.2 |
| A16C G92U C105U A107U A110C A138C | ≤ -4.2 |
| A16G C27G A30U U61A A97U G128U | ≤ -4.2 |
| A16U G50A G92U A98G C132G A142U | ≤ -4.2 |
| A16C U31A | -0.733 |
| A16C C75A C76A C125G | ≤ -4.2 |
| A16C G50A A64G C75A G83C C131A | ≤ -4.2 |
| A16G C54A C116A G133C | -2.21 |
